# Source: patent US20110263824A1 (JAPAN TOBACCO, published 2011)
# Key:
# fibronectin [1] = assay: summary of Example 1-10: ELISA on fibronectin-immobilized plate
# Description: (§1) The fibronectin-binding of each low-pI TM2 was compared using a microplate to which fibronectin was immobilized. The concentration of fibronectin was adjusted to 50 μg/mL with a fixation solution exclusive for a New ELISA plate, and the fibronectin solution (50 μL) was added to each New ELISA plate (Sumitomo Bakelite), followed by shaking at 37° C. for 4 hours for immobilization. Then, the plate was washed with 0.1% Triton X-100-containing PBS (300 μL) three times and was then dried naturally.
# (§2) TM2, K26A, K73Q, R104E, K141E, and R104EK141E mutants (50 μL each) were each added to the corresponding well of the plate and left at room temperature for 1 hour. The plate was washed with 300 μL/well of PBST (PBS buffer containing 0.1% Tween 20) three times. Then, biotinylated HRP diluted 5000 times with PBST containing 0.5% BSA was added at 50 μL/well and allowed to react with the mutant at room temperature for 1 hour. After washing with 300 μL/well of PBST three times, 50 μL/well of 1-Step Ultra TMB-ELISA solution was added to each well for color development.
# fibronectin [2] = assay: ELISA on fibronectin-immobilized plate, biotinylated HRP detection
# Description: as §1, §2
Binder,amount of fibronectin binding relative to wild type TM2 (fibronectin [1]),Binding of fibronectin (A450) (fibronectin [2])
"TM2 R104EK141E (other, TM2 double mutant; also called R104-K141) MSDVQSSLTGTWYNELNSKMELTANKDGTLTGKYLSKVGDVYVPYPLSGRYNLQPPAGQGVALGWAVSWENSKIHSATTWSGQFFSESSPVILTQWLLSSSTAEGDVWESTLVGNDSFTKTAPTEQQIAHAQLHCRAPRLE",10 to 20 % of wild type TM2,0.11
"tamavidin 2 (wild type) (other, also called TM2; TM2WT) MSDVQSSLTGTWYNELNSKMELTANKDGTLTGKYLSKVGDVYVPYPLSGRYNLQPPAGQGVALGWAVSWENSKIHSATTWSGQFFSESSPVILTQWLLSSSTARGDVWESTLVGNDSFTKTAPTEQQIAHAQLHCRAPRLK",,1.34
"TM2 K73Q (other, TM2 mutant) MSDVQSSLTGTWYNELNSKMELTANKDGTLTGKYLSKVGDVYVPYPLSGRYNLQPPAGQGVALGWAVSWENSQIHSATTWSGQFFSESSPVILTQWLLSSSTARGDVWESTLVGNDSFTKTAPTEQQIAHAQLHCRAPRLK",,0.98
"TM2 R104E (other, TM2 mutant) MSDVQSSLTGTWYNELNSKMELTANKDGTLTGKYLSKVGDVYVPYPLSGRYNLQPPAGQGVALGWAVSWENSKIHSATTWSGQFFSESSPVILTQWLLSSSTAEGDVWESTLVGNDSFTKTAPTEQQIAHAQLHCRAPRLK",,0.7
"TM2 K26A (other, TM2 mutant) MSDVQSSLTGTWYNELNSKMELTANADGTLTGKYLSKVGDVYVPYPLSGRYNLQPPAGQGVALGWAVSWENSKIHSATTWSGQFFSESSPVILTQWLLSSSTARGDVWESTLVGNDSFTKTAPTEQQIAHAQLHCRAPRLK",,0.85
"TM2 K141E (other, TM2 mutant) MSDVQSSLTGTWYNELNSKMELTANKDGTLTGKYLSKVGDVYVPYPLSGRYNLQPPAGQGVALGWAVSWENSKIHSATTWSGQFFSESSPVILTQWLLSSSTARGDVWESTLVGNDSFTKTAPTEQQIAHAQLHCRAPRLE",10 to 20 % of wild type TM2,0.21
